Measurements reported in patent US20230035659A1, “Compositions and Methods for TTR Gene Editing and Treating ATTR Amyloidosis Comprising a Corticosteroid or Use Thereof” (Intellia Therapeutics, Inc., priority 2019, published 2023).
Strand notation (5' to 3'): a small letter for the sugar, then the base; units joined by * are phosphorothioate-linked, units joined directly phosphodiester-linked; [ ] holds rarer units or linkages, { } end groups; capitals alone tell only the bases. m = 2'-O-methyl; r = 2'-OH (RNA)

B1: G000568: TTR sgRNA modified sequence, Human, SEQ ID NO: 110; guide sequence of CR003391 (nucleic acid)
guide: mG*mG*mC*rUrGrUrCrGrUrCrArCrCrArArUrCrCrCrArGrUrUrUrUrArGrAmGmCmUmAmGmAmAmAmUmAmGmCrArArGrUrUrArArArArUrArArGrGrCrUrArGrUrCrCrGrUrUrArUrCrAmAmCmUmUmGmAmAmAmAmAmGmUmGmGmCmAmCmCmGmAmGmUmCmGmGmUmGmCmU*mU*mU*mU
B2: G000500: TTR sgRNA modified sequence, Human, SEQ ID NO: 107; guide sequence of CR003337 (nucleic acid)
guide: mC*mC*mA*rGrUrCrCrArGrCrArArGrGrCrArGrArGrGrGrUrUrUrUrArGrAmGmCmUmAmGmAmAmAmUmAmGmCrArArGrUrUrArArArArUrArArGrGrCrUrArGrUrCrCrGrUrUrArUrCrAmAmCmUmUmGmAmAmAmAmAmGmUmGmGmCmAmCmCmGmAmGmUmCmGmGmUmGmCmU*mU*mU*mU
B3: G000489: TTR sgRNA modified sequence, Human, SEQ ID NO: 96; guide sequence of CR003344 (nucleic acid)
guide: mU*mU*mU*rGrArCrCrArUrCrArGrArGrGrArCrArCrUrGrUrUrUrUrArGrAmGmCmUmAmGmAmAmAmUmAmGmCrArArGrUrUrArArArArUrArArGrGrCrUrArGrUrCrCrGrUrUrArUrCrAmAmCmUmUmGmAmAmAmAmAmGmUmGmGmCmAmCmCmGmAmGmUmCmGmGmUmGmCmU*mU*mU*mU
B4: G000490: TTR sgRNA modified sequence, Human, SEQ ID NO: 97; guide sequence of CR003366 (nucleic acid)
guide: mA*mA*mA*rUrArGrArCrArCrCrArArArUrCrUrUrArCrGrUrUrUrUrArGrAmGmCmUmAmGmAmAmAmUmAmGmCrArArGrUrUrArArArArUrArArGrGrCrUrArGrUrCrCrGrUrUrArUrCrAmAmCmUmUmGmAmAmAmAmAmGmUmGmGmCmAmCmCmGmAmGmUmCmGmGmUmGmCmU*mU*mU*mU
B5: G000567: TTR sgRNA modified sequence, Human, SEQ ID NO: 109; guide sequence of CR003352 (nucleic acid)
guide: mG*mA*mA*rArGrGrCrUrGrCrUrGrArUrGrArCrArCrCrGrUrUrUrUrArGrAmGmCmUmAmGmAmAmAmUmAmGmCrArArGrUrUrArArArArUrArArGrGrCrUrArGrUrCrCrGrUrUrArUrCrAmAmCmUmUmGmAmAmAmAmAmGmUmGmGmCmAmCmCmGmAmGmUmCmGmGmUmGmCmU*mU*mU*mU
B6: G000481: TTR sgRNA modified sequence, Human, SEQ ID NO: 88; guide sequence of CR003345 (nucleic acid)
guide: UCUAGAACUUUGACCAUCAGGUUUUAGAGCUAGAAAUAGCAAGUUAAAAUAAGGCUAGUCCGUUAUCAACUUGAAAAAGUGGCACCGAGUCGGUGCUUUU
modifications: sugars from the 5' end m3 r25 m12 r28 m32, backbone not given here; further chemistry not fully specified
B7: G000572: TTR sgRNA modified sequence, Human, SEQ ID NO: 113; guide sequence of CR003385 (nucleic acid)
guide: mC*mC*mC*rCrUrArCrUrCrCrUrArUrUrCrCrArCrCrArGrUrUrUrUrArGrAmGmCmUmAmGmAmAmAmUmAmGmCrArArGrUrUrArArArArUrArArGrGrCrUrArGrUrCrCrGrUrUrArUrCrAmAmCmUmUmGmAmAmAmAmAmGmUmGmGmCmAmCmCmGmAmGmUmCmGmGmUmGmCmU*mU*mU*mU
B8: G000493: TTR sgRNA modified sequence, Human, SEQ ID NO: 100; guide sequence of CR003368 (nucleic acid)
guide: mA*mA*mG*rUrGrCrCrUrUrCrCrArGrUrArArGrArUrUrGrUrUrUrUrArGrAmGmCmUmAmGmAmAmAmUmAmGmCrArArGrUrUrArArArArUrArArGrGrCrUrArGrUrCrCrGrUrUrArUrCrAmAmCmUmUmGmAmAmAmAmAmGmUmGmGmCmAmCmCmGmAmGmUmCmGmGmUmGmCmU*mU*mU*mU

system: potential off-target genomic sites; assay: Off-target analysis by oligo insertion based assay in primary human hepatocytes (sgRNAs); assay type: cell-based; conditions: 100 ng Cas9 mRNA, 25 nM sgRNA, 12.5 nM donor oligo, 48 h

Compared with B1, B2 is higher in “# Sites in PHH (off-target integration sites detected)” value (“# Sites in PHH” below): 11 for the first, 12 for the second.

Compared with B3, B4 is lower in “# Sites in PHH” value: 2 for the first, 0 for the second.

B5 and B6 are the same in “# Sites in PHH” value: 0 for the first, 0 for the second.

First: B7
Second: B8
The “# Sites in PHH” value of the first is higher: 2 for the first, 1 for the second.

system: TTR; assay: TTR editing dose response (EC50, maximum editing) in primary cyno hepatocytes treated with LNP formulated U-depleted Spy Cas9 mRNA and sgRNAs; assay type: cell-based, cynomolgus monkey; conditions: LNP formulated U-depleted Spy Cas9 mRNA and human specific sgRNAs
Summary of the method: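 Primary cyno hepatocytes, 24 h after plating, treated with LNPs (Cas9 mRNA plus sgRNA) preincubated 5 min in medium with 6% cyno serum; 8-point 3-fold doses from 300 ng mRNA. Lysed at 72 h; indel/substitution percentage by amplicon NGS, giving EC50 and maximum editing.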

First: B1
Second: B2
The “Max Editing” value of the first is higher: 87.93% for the first, 58.04% for the second.

Going from B3 to B4, the “Max Editing” value rises from 89.21% to 90.76%.

Compared with B5, B6 is lower in “Max Editing” value: 97.06% for the first, 95.07% for the second.

Compared with B7, B8 is lower in “Max Editing” value: 100.31% for the first, 61.15% for the second.

system: TTR; assay: TTR editing in primary human hepatocytes treated with LNP formulated Spy Cas9 mRNA (SEQ ID NO: 2) and sgRNAs, 12.5 ng mRNA; assay type: cell-based; conditions: LNP formulated Spy Cas9 mRNA (SEQ ID NO: 2) and sgRNA, 12.5 ng mRNA, 3.9 nM sgRNA, 72 hours
Procedure: Primary liver hepatocytes. Primary human liver hepatocytes (PHH) and primary cynomolgus liver hepatocytes (PCH) (Gibco) were cultured per the manufacturer's protocol (Invitrogen, protocol 11.28.2012). In brief, the cells were thawed and resuspended in hepatocyte thawing medium with supplements (Gibco, Cat. CM7000) followed by centrifugation at 100 g for 10 minutes for human and 80 g for 4 minutes for cyno. The supernatant was discarded and the pelleted cells resuspended in hepatocyte plating medium plus supplement pack (Invitrogen, Cat. A1217601 and CM3000). Cells were counted and plated on Bio-coat collagen I coated 96-well plates (ThermoFisher, Cat. 877272) at a density of 33,000 cells/well for human or 60,000 cells/well for cyno (or 65,000 cells/well when assaying effects on TTR protein, described further below). Plated cells were allowed to settle and adhere for 6 or 24 hours in a tissue culture incubator at 37° C. and 5% CO2 atmosphere. After incubation cells were checked for monolayer formation and media was replaced with hepatocyte culture medium with serum-free supplement pack (Invitrogen, Cat. A1217601 and CM4000).
In general, the lipid nanoparticle components were dissolved in 100% ethanol with the lipid component of various molar ratios. The RNA cargos were dissolved in 25 mM citrate, 100 mM NaCl, pH 5.0, resulting in a concentration of RNA cargo of approximately 0.45 mg/mL. The LNPs were formulated with a lipid amine to RNA phosphate (N:P) molar ratio of about 4.5 or about 6, with the ratio of mRNA to gRNA at 1:1 by weight.
The LNPs were formed by microfluidic mixing of the lipid and RNA solutions using a Precision Nanosystems NanoAssemblr™ Benchtop Instrument, according to the manufacturer's protocol. A 2:1 ratio of aqueous to organic solvent was maintained during mixing using differential flow rates. After mixing, the LNPs were collected, diluted in water (approximately 1:1 v/v), held for 1 hour at room temperature, and further diluted with water (approximately 1:1 v/v) before final buffer exchange. The final buffer exchange into 50 mM Tris, 45 mM NaCl, 5% (w/v) sucrose, pH 7.5 (TSS) was completed with PD-10 desalting columns (GE). If required, formulations were concentrated by centrifugation with Amicon 100 kDa centrifugal filters (Millipore). The resulting mixture was then filtered using a 0.2 μm sterile filter. The final LNP was stored at −80° C. until further use.
Additional PCR was performed per the manufacturer's protocols (Illumina) to add chemistry for sequencing. The amplicons were sequenced on an Illumina MiSeq instrument. The reads were aligned to a reference genome (e.g., the human reference genome (hg38), the cynomologus reference genome (mf5), the rat reference genome (rn6), or the mouse reference genome (mm10)) after eliminating those having low quality scores. The resulting files containing the reads were mapped to the reference genome (BAM files), where reads that overlapped the target region of interest were selected and the number of wild type reads versus the number of reads which contain an insertion, substitution, or deletion was calculated.
The editing percentage (e.g., the “editing efficiency” or “percent editing” or “indel frequency”) is defined as the total number of sequence reads with insertions/deletions (“indels”) or substitutions over the total number of sequence reads, including wild type.
Lipid nanoparticle formulations of modified sgRNAs targeting human TTR and the cyno matched sgRNA sequences were tested on primary human hepatocytes and primary cyno hepatocytes in a dose response curve. Primary human and cyno hepatocytes were plated as described in Example 1. Both cell lines were incubated at 37° C., 5% CO2 for 24 hours prior to treatment with LNPs. The LNPs used in the experiments detailed in Tables 18-21 were prepared using the Nanoassemblr™ procedure, each containing the specified sgRNA and Cas9 mRNA (SEQ ID NO:2), each having Lipid. […]

Going from B1 to B2, the “12.5 ng mRNA, 3.9 nM sgRNA, Avg % Edit” value falls from 54.60% to 23.57%.

Compared with B3, B4 is lower in “12.5 ng mRNA, 3.9 nM sgRNA, Avg % Edit” value: 16.85% for the first, 10.53% for the second.

Going from B5 to B6, the “12.5 ng mRNA, 3.9 nM sgRNA, Avg % Edit” value falls from 48.95% to 24.37%.

First: B7
Second: B8
The “12.5 ng mRNA, 3.9 nM sgRNA, Avg % Edit” value of the first is higher: 55.45% for the first, 7.33% for the second.
